{
  "source": "patent US20250002585A1",
  "about": "(CENTESSA PHARMACEUTICALS UK, published 2025)",
  "binders": {"B1": {"name": "positive control anti-CD47 Fab (recombinant Fab using the variable domain sequences used in LB101) (Fab, V domains shown)", "VH": "QVQLVQSGAEVKKPGESLKISCKGSGYTFTNYYIFWVRQMPGKGLEWMGIINPVDGDTNYNPSFQGQVTISADKSISTAYLQWSSLKASDTAMYYCARGGYTMDRWGQGTLVTVSS", "VL": "DIVMTQSPLSLPVTPGEPASISCRSSQSLLHSNGYNYLHWYLQKPGQSPQLLIYKVSNRFSGVPDRFSGSGSGTDFTLKISRVEAEDVGVYYCFQNTHTPRTFGGGTKVEIK"}},
  "target": "T1, mouse CD47 (SPR analyte) (mouse, UniProt Q61735 19-140, limits assumed)",
  "T1 sequence (looked up)": "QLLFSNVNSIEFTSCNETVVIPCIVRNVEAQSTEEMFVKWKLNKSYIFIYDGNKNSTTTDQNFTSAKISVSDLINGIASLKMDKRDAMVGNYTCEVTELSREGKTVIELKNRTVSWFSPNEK",
  "test": "SPR (Biacore T200), 25 C; Fab captured by anti-human Fab, mouse CD47 as analyte; steady state",
  "protocol": "HBS-P+ supplemented with 0.1% BSA was used as running buffer as well as for ligand and analyte dilutions. […] Ligand was captured at a flow rate of 10 μl/min to give an immobilisation level (RL) of ˜ 60 RU. The surface was then allowed to stabilise. Multi-cycle kinetic data was obtained using either human or mouse CD47 as the analyte injected at a flow rate of 30 μl/min. […] For each concentration, the association phases were monitored for 180 seconds, and the dissociation phase was measured for 300 seconds. Regeneration of the sensor chip surface was conducted between cycles using 10 mM glycine pH 2.1. The signal from the reference channel Fcl (no ligand captured) was subtracted from that of Fc2-4 to correct for bulk effect and differences in non-specific binding to a reference surface. The signal from each CD47 blank run (ligand captured but no antigen) was subtracted to correct for differences in surface stability. […] Mouse CD47 binding was analysed using steady state analysis.",
  "data": [
    {"binder": "B1", "values": [
      {"measurement": "Kd", "value": 165, "unit": "nM"}
    ]}
  ]
}
